# Literature values as cited in US8399407B2 (Case Western Reserve University, priority 2009, dated 2013).
# Conditions: pH 7.4 and 37° C.
substance,measurement,value
Asp^B28-insulin,Susceptibility to fibrillation compared with human insulin,more susceptible to fibrillation
